# According to patent US11352401:
# Biological target: T1, HLA-A*24 (human)
# T1 construct: MHC monomer made peptide-receptive by UV cleavage of a UV-sensitive ligand; also called peptide-receptive MHC class I monomer
# Assay: UV peptide-exchange ELISA; +++ = yield >50%
row,peptide exchange yield,Binder
1,50 to 75%,SYIGLPLTL [SYIGLPLTL (SEQ ID NO: 73)]
2,50 to 75%,YYADKKTFIVL [YYADKKTFIVL (SEQ ID NO: 17)]
3,50 to 75%,IYHSHHPTL [IYHSHHPTL (SEQ ID NO: 382)]
4,50 to 75%,WYGWHFPEL [WYGWHFPEL (SEQ ID NO: 76)]
5,50 to 75%,KSSVIASLLF [KSSVIASLLF (SEQ ID NO: 33)]
6,50 to 75%,VQQWSVAVF [VQQWSVAVF (SEQ ID NO: 7)]
7,50 to 75%,QYEPPSAPSTTF [QYEPPSAPSTTF (SEQ ID NO: 40)]
8,50 to 75%,TYLSIFDQL [TYLSIFDQL (SEQ ID NO: 60)]
9,50 to 75%,TYNPDFSSL [TYNPDFSSL (SEQ ID NO: 16)]

# More lines, now with the values behind:
row,Binder,peptide exchange yield
1,SYSSCYSF [SYSSCYSF (SEQ ID NO: 14)],50 to 75%
2,SYEVRSTF [SYEVRSTF (SEQ ID NO: 21)],50 to 75%
3,KQMEDGHTLF [KQMEDGHTLF (SEQ ID NO: 36)],50 to 75%
4,RYKQDVERF [RYKQDVERF (SEQ ID NO: 383)],50 to 75%
5,RWLPQKNAAQF [RWLPQKNAAQF (SEQ ID NO: 387)],50 to 75%
6,NYIVPDKQIF [NYIVPDKQIF (SEQ ID NO: 379)],50 to 75%
7,NYAENILTL [NYAENILTL (SEQ ID NO: 61)],50 to 75%
8,VFQEKHHVI [VFQEKHHVI (SEQ ID NO: 380)],50 to 75%
9,LLIKLLQTF [LLIKLLQTF (SEQ ID NO: 54)],50 to 75%

# Biological target: T2, HLA-B*07 (human)
# T2 construct: MHC monomer made peptide-receptive by UV cleavage of a UV-sensitive ligand; also called peptide-receptive MHC class I monomer
# Assay: UV peptide-exchange ELISA; +++ = yield >50%
row,peptide exchange yield,Binder
1,50 to 75%,APHPPLSVV [APHPPLSVV (SEQ ID NO: 275)]
2,50 to 75%,VPISEEGTPVL [VPISEEGTPVL (SEQ ID NO: 280)]
3,50 to 75%,YPQHPGLNA [YPQHPGLNA (SEQ ID NO: 260)]
4,50 to 75%,MPQIETRVIL [MPQIETRVIL (SEQ ID NO: 282)]
5,50 to 75%,RPMQQARAQL [RPMQQARAQL (SEQ ID NO: 459)]
6,50 to 75%,NPFYPEVEL [NPFYPEVEL (SEQ ID NO: 222)]
7,50 to 75%,VPLPAGGGTVL [VPLPAGGGTVL (SEQ ID NO: 230)]

# More lines, now with the values behind:
row,Binder,peptide exchange yield
1,APSARVGVC [APSARVGVC (SEQ ID NO: 261)],50 to 75%
2,RIREHVPQL [RIREHVPQL (SEQ ID NO: 245)],50 to 75%
3,SPARASPAL [SPARASPAL (SEQ ID NO: 279)],50 to 75%
4,RPAATAVISL [RPAATAVISL (SEQ ID NO: 237)],50 to 75%
5,RALLARLLL [RALLARLLL (SEQ ID NO: 247)],50 to 75%
6,MPLPWSLALP [MPLPWSLALP (SEQ ID NO: 271)],50 to 75%
7,SPQRLRGLLL [SPQRLRGLLL (SEQ ID NO: 292)],50 to 75%
8,LPRAGGAFL [LPRAGGAFL (SEQ ID NO: 276)],50 to 75%
9,RVIDAVRFTL [RVIDAVRFTL (SEQ ID NO: 253)],50 to 75%
10,APREEQQRSL [APREEQQRSL (SEQ ID NO: 287)],50 to 75%
11,VPLPAGGGTV [VPLPAGGGTV (SEQ ID NO: 229)],50 to 75%
12,TPYQEHVAL [TPYQEHVAL (SEQ ID NO: 274)],50 to 75%

# Biological target: T3, HLA-A*03 (human)
# T3 construct: MHC monomer made peptide-receptive by UV cleavage of a UV-sensitive ligand; also called peptide-receptive MHC class I monomer
# Assay: UV peptide-exchange ELISA; ++++ = yield >75%
row,peptide exchange yield,Binder
1,> 75%,SINKPTSER [SINKPTSER (SEQ ID NO: 457)]
2,> 75%,TVNPVAIHK [TVNPVAIHK (SEQ ID NO: 211)]
3,> 75%,RLRSSLVFK [RLRSSLVFK (SEQ ID NO: 219)]
4,> 75%,RILNQILYY [RILNQILYY (SEQ ID NO: 217)]
5,> 75%,GIADFVLKY [GIADFVLKY (SEQ ID NO: 458)]
6,> 75%,AINTSIKNK [AINTSIKNK (SEQ ID NO: 453)]
7,> 75%,ATSGVPVYK [ATSGVPVYK (SEQ ID NO: 210)]
8,> 75%,RIADIFVKK [RIADIFVKK (SEQ ID NO: 455)]

# Further lines, the binder ahead of its results:
row,Binder,peptide exchange yield
1,RTQIPMSEK [RTQIPMSEK (SEQ ID NO: 209)],> 75%
2,SMFTAILKK [SMFTAILKK (SEQ ID NO: 456)],> 75%
3,MMFSGPQILKL [MMFSGPQILKL (SEQ ID NO: 215)],> 75%
4,KVYTPSISK [KVYTPSISK (SEQ ID NO: 454)],> 75%
5,RTMSEAALVRK [RTMSEAALVRK (SEQ ID NO: 214)],> 75%
6,KAYEQVMHY [KAYEQVMHY (SEQ ID NO: 212)],> 75%
7,GLASRILDAK [GLASRILDAK (SEQ ID NO: 208)],> 75%

# Biological target: T4, HLA-B*08 (human)
# T4 construct: MHC monomer made peptide-receptive by UV cleavage of a UV-sensitive ligand; also called peptide-receptive MHC class I monomer
# Assay: UV peptide-exchange ELISA; ++++ = yield >75%
row,peptide exchange yield,Binder
1,> 75%,LPFPKFTV [LPFPKFTV (SEQ ID NO: 303)]
2,> 75%,RAQLKLVAL [RAQLKLVAL (SEQ ID NO: 297)]
3,> 75%,MPMQDIKM [MPMQDIKM (SEQ ID NO: 296)]
4,> 75%,ALKLRVAVL [ALKLRVAVL (SEQ ID NO: 305)]
5,> 75%,LPPKKFVL [LPPKKFVL (SEQ ID NO: 310)]
6,> 75%,YMHKLLVL [YMHKLLVL (SEQ ID NO: 301)]
7,> 75%,ELKKLYCQI [ELKKLYCQI (SEQ ID NO: 304)]
8,> 75%,MLKQKVEEL [MLKQKVEEL (SEQ ID NO: 308)]
9,> 75%,MAQFKEISL [MAQFKEISL (SEQ ID NO: 299)]
10,> 75%,ILKVKVGL [ILKVKVGL (SEQ ID NO: 306)]
11,> 75%,DIYQRALNL [DIYQRALNL (SEQ ID NO: 315)]

# Further lines, the binder ahead of its results:
row,Binder,peptide exchange yield
1,ELKKKEYEEL [ELKKKEYEEL (SEQ ID NO: 313)],> 75%
2,EAAIRSVEL [EAAIRSVEL (SEQ ID NO: 318)],> 75%
3,EAMLRNKEL [EAMLRNKEL (SEQ ID NO: 312)],> 75%
4,ILLPRTVSL [ILLPRTVSL (SEQ ID NO: 307)],> 75%
5,LVKVKVLL [LVKVKVLL (SEQ ID NO: 317)],> 75%
6,EIRIRVVQM [EIRIRVVQM (SEQ ID NO: 311)],> 75%
7,AIISRLVAL [AIISRLVAL (SEQ ID NO: 314)],> 75%

# Biological target: T5, HLA-B*44 (human)
# T5 construct: MHC monomer made peptide-receptive by UV cleavage of a UV-sensitive ligand; also called peptide-receptive MHC class I monomer
# Assay: UV peptide-exchange ELISA; ++++ = yield >75%
row,peptide exchange yield,Binder
1,> 75%,MEVDPIGHVYIF [MEVDPIGHVYIF (SEQ ID NO: 320)]
2,> 75%,AEMLERVIKNY [AEMLERVIKNY (SEQ ID NO: 319)]
